These are literature values, as cited in article PMC3907174.

The data set concerns the target RBP (Homo sapiens) (UniProt P02753).

Turning to STRA6 (from UniProt Q9BX79), the dissociation constant Kd is 50 nM.
